Measured values as given in article PMC9482650, “Quantitative fragmentomics allow affinity mapping of interactomes” (Nature Communications, 2022).

T1: GRIP1_3, Q9Y3R0
T1 sequence (Q9Y3R0 247-346, limits assumed, looked up): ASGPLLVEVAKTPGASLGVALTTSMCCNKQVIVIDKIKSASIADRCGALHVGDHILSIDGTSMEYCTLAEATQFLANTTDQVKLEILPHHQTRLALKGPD

T2: GRIP1_7, Q9Y3R0
T2 sequence (Q9Y3R0 999-1096, limits assumed, looked up): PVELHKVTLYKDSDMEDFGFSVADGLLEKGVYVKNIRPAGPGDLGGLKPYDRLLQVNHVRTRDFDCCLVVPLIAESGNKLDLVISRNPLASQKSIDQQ

T3: MPP7, Q5T2T1
T3 sequence (Q5T2T1 134-230, limits assumed, looked up): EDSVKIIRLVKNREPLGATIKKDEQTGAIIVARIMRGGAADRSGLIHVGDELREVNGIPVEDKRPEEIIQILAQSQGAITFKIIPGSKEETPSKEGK

T4: TJP3_3, O95049
T4 sequence (O95049 375-456, limits assumed, looked up): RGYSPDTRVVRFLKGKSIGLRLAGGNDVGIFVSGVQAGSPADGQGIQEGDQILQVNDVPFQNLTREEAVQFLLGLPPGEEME

T5: SYNJ2BP, P57105
T5 sequence (P57105 8-110, limits assumed, looked up): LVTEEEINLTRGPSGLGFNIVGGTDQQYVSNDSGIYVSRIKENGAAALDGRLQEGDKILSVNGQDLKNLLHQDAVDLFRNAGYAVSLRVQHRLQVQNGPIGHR

T6: APBA2_1, Q99767
T6 sequence (Q99767 563-664, limits assumed, looked up): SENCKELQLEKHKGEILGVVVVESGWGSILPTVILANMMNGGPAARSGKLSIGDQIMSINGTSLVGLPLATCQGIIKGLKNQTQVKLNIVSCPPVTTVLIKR

T7: GRIP1_5, Q9Y3R0
T7 sequence (Q9Y3R0 568-668, limits assumed, looked up): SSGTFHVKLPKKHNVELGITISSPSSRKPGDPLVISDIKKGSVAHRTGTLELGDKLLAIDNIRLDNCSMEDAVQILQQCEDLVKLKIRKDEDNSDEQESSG

T8: GRIP1_2, Q9Y3R0
T8 sequence (Q9Y3R0 145-248, limits assumed, looked up): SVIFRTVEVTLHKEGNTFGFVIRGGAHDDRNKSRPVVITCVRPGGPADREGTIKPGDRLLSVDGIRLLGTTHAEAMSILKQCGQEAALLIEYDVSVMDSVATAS

T9: APBA1_1, Q02410
T9 sequence (Q02410 651-752, limits assumed, looked up): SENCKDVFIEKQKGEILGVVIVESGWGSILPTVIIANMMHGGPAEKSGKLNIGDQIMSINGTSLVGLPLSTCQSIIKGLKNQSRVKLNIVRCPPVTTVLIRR


What was measured:
Test in all cases: holdup assay
Set-up in all cases: key: below the threshold = too weak to quantify, mostly under pKd 3.1 to 4
Conditions in all cases: plain residues with an end cap or a label only (N-terminal biotin on a linker: ado-ado)
FRMPD4, Q14CM0 = biological target: FRMPD4, Q14CM0
GRIP1_3, Q9Y3R0 = biological target: T1, GRIP1_3, Q9Y3R0
GRIP1_7, Q9Y3R0 = biological target: T2, GRIP1_7, Q9Y3R0
GRIP2_4, Q9C0E4 = biological target: GRIP2_4, Q9C0E4
MPP7, Q5T2T1 = biological target: T3, MPP7, Q5T2T1
TJP3_3, O95049 = biological target: T4, TJP3_3, O95049
GORASP2, Q9H8Y8 = biological target: GORASP2, Q9H8Y8
SYNJ2BP, P57105 = biological target: T5, SYNJ2BP, P57105
GRIP2_5, Q9C0E4 = biological target: GRIP2_5, Q9C0E4
APBA2_1, Q99767 = biological target: T6, APBA2_1, Q99767
SNX27, Q96L92 = biological target: SNX27, Q96L92
Inadl_2, Q8NI35 = biological target: Inadl_2, Q8NI35
PDZRN4_1, Q6ZMN7 = biological target: PDZRN4_1, Q6ZMN7
LAP2, Q96RT1 = biological target: LAP2, Q96RT1
GRID2IP_1, A4D2P6 = biological target: GRID2IP_1, A4D2P6
DLG5_1, Q8TDM6 = biological target: DLG5_1, Q8TDM6
CASK, O14936 = biological target: CASK, O14936
GRIP1_5, Q9Y3R0 = biological target: T7, GRIP1_5, Q9Y3R0
GRIP1_2, Q9Y3R0 = biological target: T8, GRIP1_2, Q9Y3R0
MAGI2_4, Q86UL8 = biological target: MAGI2_4, Q86UL8
TJP2_1, Q9UDY2 = biological target: TJP2_1, Q9UDY2
GRIP2_6, Q9C0E4 = biological target: GRIP2_6, Q9C0E4
MAGI2_2, Q86UL8 = biological target: MAGI2_2, Q86UL8
HTRA2, O43464 = biological target: HTRA2, O43464
SCRIB_1, Q14160 = biological target: SCRIB_1, Q14160
SCRIB_2, Q14160 = biological target: SCRIB_2, Q14160
APBA1_1, Q02410 = biological target: T9, APBA1_1, Q02410
GRIP2_7, Q9C0E4 = biological target: GRIP2_7, Q9C0E4
Sequence of GRIP2_7, Q9C0E4 (Q9C0E4 934-1023): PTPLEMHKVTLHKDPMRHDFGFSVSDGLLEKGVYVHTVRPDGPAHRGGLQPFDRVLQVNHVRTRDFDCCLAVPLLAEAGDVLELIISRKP

Sequence of SCRIB_2, Q14160 (Q14160 857-960): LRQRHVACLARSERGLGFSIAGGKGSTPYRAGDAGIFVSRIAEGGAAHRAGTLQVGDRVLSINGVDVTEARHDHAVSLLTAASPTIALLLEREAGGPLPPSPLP
Sequence of TJP2_1, Q9UDY2 (Q9UDY2 24-128): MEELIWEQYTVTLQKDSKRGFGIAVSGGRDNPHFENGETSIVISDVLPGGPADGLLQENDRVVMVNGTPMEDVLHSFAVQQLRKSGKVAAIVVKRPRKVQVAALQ
Sequence of DLG5_1, Q8TDM6 (Q8TDM6 617-713): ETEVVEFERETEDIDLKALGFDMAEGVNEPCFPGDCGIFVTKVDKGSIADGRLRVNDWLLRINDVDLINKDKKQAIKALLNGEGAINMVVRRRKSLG
Sequence of GRIP2_4, Q9C0E4 (Q9C0E4 446-548): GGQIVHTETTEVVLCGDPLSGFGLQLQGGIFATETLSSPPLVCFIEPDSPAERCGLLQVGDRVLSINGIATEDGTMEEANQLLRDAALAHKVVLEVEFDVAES
Sequence of FRMPD4, Q14CM0 (Q14CM0 67-160): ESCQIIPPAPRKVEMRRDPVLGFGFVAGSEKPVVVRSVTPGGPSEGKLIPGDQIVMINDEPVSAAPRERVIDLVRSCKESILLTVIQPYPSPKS
Sequence of PDZRN4_1, Q6ZMN7 (Q6ZMN7 213-318): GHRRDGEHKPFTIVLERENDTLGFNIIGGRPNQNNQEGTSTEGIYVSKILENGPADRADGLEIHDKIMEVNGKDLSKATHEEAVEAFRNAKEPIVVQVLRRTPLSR
Sequence of GRIP2_6, Q9C0E4 (Q9C0E4 648-740): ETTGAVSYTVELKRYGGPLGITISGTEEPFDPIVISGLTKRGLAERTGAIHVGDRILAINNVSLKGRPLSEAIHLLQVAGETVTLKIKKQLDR
Sequence of MAGI2_2, Q86UL8 (Q86UL8 410-522): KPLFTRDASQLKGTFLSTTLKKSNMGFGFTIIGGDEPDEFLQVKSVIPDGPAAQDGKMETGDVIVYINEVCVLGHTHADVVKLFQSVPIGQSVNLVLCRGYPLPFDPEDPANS
Sequence of MAGI2_4, Q86UL8 (Q86UL8 772-865): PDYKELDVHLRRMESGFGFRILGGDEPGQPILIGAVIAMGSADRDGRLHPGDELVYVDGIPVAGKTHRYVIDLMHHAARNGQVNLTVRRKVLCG
Sequence of GRIP2_5, Q9C0E4 (Q9C0E4 544-642): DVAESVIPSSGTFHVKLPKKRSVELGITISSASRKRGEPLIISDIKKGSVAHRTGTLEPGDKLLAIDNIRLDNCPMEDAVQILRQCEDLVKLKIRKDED
Sequence of CASK, O14936 (O14936 487-570): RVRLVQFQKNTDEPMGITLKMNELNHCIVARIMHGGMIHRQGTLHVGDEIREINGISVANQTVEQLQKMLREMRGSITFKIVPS
Sequence of LAP2, Q96RT1 (Q96RT1 other isoform, or with tags, fused parts or gaps): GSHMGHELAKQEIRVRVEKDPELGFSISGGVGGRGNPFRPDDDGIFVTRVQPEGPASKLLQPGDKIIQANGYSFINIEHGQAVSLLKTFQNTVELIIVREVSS
Sequence of Inadl_2, Q8NI35 (Q8NI35 238-335): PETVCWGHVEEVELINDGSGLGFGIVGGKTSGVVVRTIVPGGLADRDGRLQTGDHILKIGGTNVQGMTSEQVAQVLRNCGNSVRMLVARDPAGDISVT
Sequence of GRID2IP_1, A4D2P6 (A4D2P6 1-87): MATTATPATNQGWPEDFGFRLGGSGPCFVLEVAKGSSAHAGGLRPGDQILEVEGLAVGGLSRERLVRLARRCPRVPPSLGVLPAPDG
Sequence of SCRIB_1, Q14160 (Q14160 718-814): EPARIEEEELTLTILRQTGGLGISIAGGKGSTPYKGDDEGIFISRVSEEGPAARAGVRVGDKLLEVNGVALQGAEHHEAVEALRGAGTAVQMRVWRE
Sequence of HTRA2, O43464 (O43464 355-458): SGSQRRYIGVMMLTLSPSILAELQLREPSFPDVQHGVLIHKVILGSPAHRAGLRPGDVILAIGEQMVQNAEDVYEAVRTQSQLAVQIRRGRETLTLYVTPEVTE

| Binder | pKd (GRIP1_3, Q9Y3R0) | pKd (GRIP1_7, Q9Y3R0) | pKd (GRIP2_4, Q9C0E4) | pKd (MPP7, Q5T2T1) | pKd (TJP3_3, O95049) | pKd (GORASP2, Q9H8Y8) | pKd (GRIP2_5, Q9C0E4) | pKd (APBA2_1, Q99767) | pKd (SNX27, Q96L92) | pKd (Inadl_2, Q8NI35) | pKd (PDZRN4_1, Q6ZMN7) | pKd (LAP2, Q96RT1) | pKd (GRID2IP_1, A4D2P6) | pKd (DLG5_1, Q8TDM6) | pKd (CASK, O14936) | pKd (GRIP1_5, Q9Y3R0) | pKd (GRIP1_2, Q9Y3R0) | pKd (TJP2_1, Q9UDY2) | pKd (GRIP2_6, Q9C0E4) | pKd (HTRA2, O43464) | also measured |
| --- | --- | --- | --- | --- | --- | --- | --- | --- | --- | --- | --- | --- | --- | --- | --- | --- | --- | --- | --- | --- | --- |
| SKQFDKNAYV [CLDN10, P78369] | below the threshold | below the threshold | below the threshold | below the threshold | 3.68 | below the threshold | below the threshold | below the threshold | 3.78 | below the threshold | below the threshold | below the threshold | below the threshold | below the threshold | below the threshold | below the threshold | below the threshold | 4.19 | below the threshold | below the threshold | pKd (FRMPD4, Q14CM0): 3.59; pKd (SYNJ2BP, P57105): below the threshold; pKd (MAGI2_4, Q86UL8): below the threshold; pKd (MAGI2_2, Q86UL8): below the threshold; pKd (SCRIB_1, Q14160): below the threshold; pKd (SCRIB_2, Q14160): below the threshold; pKd (APBA1_1, Q02410): below the threshold; pKd (GRIP2_7, Q9C0E4): below the threshold |
| PAALPESTHM [SLC9A3, P48764] | below the threshold | below the threshold | below the threshold | below the threshold | below the threshold | below the threshold | below the threshold | below the threshold | below the threshold | below the threshold | below the threshold | below the threshold | below the threshold | below the threshold | below the threshold | below the threshold | below the threshold | below the threshold | below the threshold | below the threshold | pKd (FRMPD4, Q14CM0): below the threshold; pKd (SYNJ2BP, P57105): below the threshold; pKd (MAGI2_4, Q86UL8): below the threshold; pKd (MAGI2_2, Q86UL8): below the threshold; pKd (SCRIB_1, Q14160): 3.57; pKd (SCRIB_2, Q14160): below the threshold; pKd (APBA1_1, Q02410): below the threshold; pKd (GRIP2_7, Q9C0E4): below the threshold |
| VKQYADVEGF [HNRNPK, P61978;P61978-2] | below the threshold | below the threshold | below the threshold | below the threshold | below the threshold | below the threshold | below the threshold | below the threshold | below the threshold | below the threshold | below the threshold | below the threshold | below the threshold | below the threshold | below the threshold | below the threshold | below the threshold | below the threshold | below the threshold | below the threshold | pKd (FRMPD4, Q14CM0): below the threshold; pKd (SYNJ2BP, P57105): below the threshold; pKd (MAGI2_4, Q86UL8): below the threshold; pKd (SCRIB_1, Q14160): below the threshold; pKd (SCRIB_2, Q14160): below the threshold; pKd (APBA1_1, Q02410): below the threshold; pKd (GRIP2_7, Q9C0E4): below the threshold |
| NTALVESEDL [PALLS, Q8WX93;Q8WX93-1] | below the threshold | below the threshold | below the threshold | below the threshold | below the threshold | below the threshold | below the threshold | below the threshold | 4.38 | below the threshold | below the threshold | below the threshold | below the threshold | below the threshold | below the threshold | below the threshold | below the threshold | below the threshold | below the threshold | below the threshold | pKd (MAGI2_2, Q86UL8): below the threshold; pKd (SCRIB_1, Q14160): below the threshold; pKd (SCRIB_2, Q14160): below the threshold; pKd (APBA1_1, Q02410): below the threshold; pKd (GRIP2_7, Q9C0E4): below the threshold |
